Data as given in patent US6797264B1, “Medicinal product and method for treatment of conditions affecting neural stem cells or progenitor cells” (Cellartis AB, priority 1998, dated 2004).

What was measured:
[1] = test system: progenitor cells in the dentate gyrus; experiment: BrdU-positive (newborn) cells in the dentate gyrus of hypophysectomized rats; assay type: in vivo, Fisher rats
From the text: In this example, the density of BrdU-positive cells in the dentate gyrus of hypophysectomized (Hx) rate treated according to the invention with growth hormone (GH), cortisol (C), and L-thyroxine (T) was compared to the density of BrdU-positive cells in the dentate gyrus of hypophysectomized rats treated with cortisol (C), and L-thyroxine (T), and to the density of the same cells for an untreated unoperated control group.
Fisher rats (Harlan Sprague Dawley) which were inact or hypophysectomized at 50 days of age were mainained under standardized conditions of temperature (24-26° C.), humidity (50-60%) and with lights on between 0500 and 1900 h.
(§1) The rats had free access to standard laboratory chow and water. Hormonal treatment started 7-10 days after hyophysectomy. All the hypophysectomized rats were given cortisol phosphate (400 μg/kg/day; Solu-Cortef, Upjohn, Puurs, Belgium) and L-thyroxine (10 μg/kg/day; Sigma, USA) diluted in saline as a daily subcutaneous injection (at 0800 h). Recombinant bovine GH (bGH) was diluted in 0.05 M phosphate buffer, pH 8.6, with 1.6% glycerol and 0.02% sodium azide. GH 1 mg/kg/day was given as one daily subcutaneous injection at 24 h intervals. The treatment continued for seven days. Thereafter the rats were sacrificed and the brains taken out and prepared for immunohistochemistry.
(§2) Ten hypophysectomized rats were substituted with only cortisole and L-thyroxine. […] The thymidine analog BrdU is incorporated into the genetic material upon mitotic division whereafter it can be detected immunohistochemically in the resulting cells. […]
(§3) The number of BrdU positive cells in the dentate gyrus of the hippocampus were counted using unbiased counting techniques. […]
For the immunofluorescence, sections were treated for DNA denaturation as described above, followed by incubation in TBS-TS for 30 min. Thereafter the sections were incubated with mouse-anti-Calbindin-D28k, 1:2000 (Sigma) for 16 h at 4° C. and was detected with a Texas red conjugated donkey anti-mouse IgG. BrdU was detected with a FITC conjugated rabbit anti-BrdU antibody. […]

[2] = test system: progenitor cells in the dentate gyrus; experiment: BrdU-positive cell proliferation in normal rats treated with GH; assay type: in vivo, Fisher rats; conditions: normal animals treated one week with GH, compared with normal controls and with hypophysectomized animals substituted one week then unsubstituted 3 weeks
Procedure: as §1
as §2, with “L-thyroxine. Fifteen hypophysectomized rats were substituted with cortisole, L-thyroxine and GH.” for “L-thyroxine.”
as §3
The total number of BrdU positive cells in the granule cell layer, the subgranular layer and the hilus and their corresponding sample volumes were determined in 7-9 coronal sections, […], that contained the dentate gyrus. […]

B1: GH: Recombinant bovine growth hormone, given 1 mg/kg/day subcutaneously together with cortisol and L-thyroxine (protein, UniProt P01246 27-217, looked up)
Somatotropin: AFPAMSLSGLFANAVLRAQHLHQLAADTFKEFERTYIPEGQRYSIQNTQVAFCFSETIPAPTGKNEAQQKSDLELLRISLLLIQSWLGPLQFLSRVFTNSLVFGTSDRVYEKLKDLEEGILALMRELEDGTPRAGQILKQTYDKFDTNMRSDDALLKNYGLLSCFRKDLHKTETYLRVMKCRRFGEASCAF
For B1, the “rate of proliferation of progenitor cells” value ([1]; hypophysectomized animals treated with cortisol and L-thyroxine, quantified after one week of substitution) was “significantly increased”, the granulae cell neurons ([1]; hypophysectomized animals, cortisone, thyroxine and GH vs only cortisone and thyroxine, four weeks after the last BrdU injection, FIG. 2) was “significantly more granulae cell neurons” and the “number of newborn cells in the dentate gyrus” value ([1]; hypophysectomized rats, GH 1 mg/kg/day s.c. plus cortisone and thyroxine, after 7 days, compared to only cortisone and thyroxine, FIG. 1) was “significantly increased”. The proliferation [2] was “increased”.
